This note sets out measurements from PMC4182348 (PLoS ONE, 2014).

A word on the Kd: it is the equilibrium constant for the complex coming apart. The low end stands for tighter binding, the high end for weaker binding. Broadly, the koff is the first-order rate constant of dissociation. A high value points to fast dissociation. For orientation: kon means the rate constant with which the complex forms.

Common to all, as to settings: one partner purified
Experiment [1] deals with T1, tetanus toxoid (Clostridium tetani, strain  …, UniProt P04958). Put plainly: SPR. A general note: SPR reads the build-up and loss of mass on a sensor chip optically.
T1 sequence (P04958 1-457, chain 1 of 2): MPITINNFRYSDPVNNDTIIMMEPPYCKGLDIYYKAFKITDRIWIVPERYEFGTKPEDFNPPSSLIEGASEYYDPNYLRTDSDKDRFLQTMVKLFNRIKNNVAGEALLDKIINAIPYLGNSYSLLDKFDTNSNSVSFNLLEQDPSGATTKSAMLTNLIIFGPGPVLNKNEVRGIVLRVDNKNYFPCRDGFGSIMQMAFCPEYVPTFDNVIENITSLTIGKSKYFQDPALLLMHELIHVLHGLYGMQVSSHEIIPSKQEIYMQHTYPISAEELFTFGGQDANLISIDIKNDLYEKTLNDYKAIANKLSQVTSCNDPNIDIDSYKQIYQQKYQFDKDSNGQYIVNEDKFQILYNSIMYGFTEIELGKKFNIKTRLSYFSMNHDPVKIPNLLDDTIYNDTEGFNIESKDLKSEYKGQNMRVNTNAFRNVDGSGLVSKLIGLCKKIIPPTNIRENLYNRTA
T1 sequence (P04958 458-1315, chain 2 of 2): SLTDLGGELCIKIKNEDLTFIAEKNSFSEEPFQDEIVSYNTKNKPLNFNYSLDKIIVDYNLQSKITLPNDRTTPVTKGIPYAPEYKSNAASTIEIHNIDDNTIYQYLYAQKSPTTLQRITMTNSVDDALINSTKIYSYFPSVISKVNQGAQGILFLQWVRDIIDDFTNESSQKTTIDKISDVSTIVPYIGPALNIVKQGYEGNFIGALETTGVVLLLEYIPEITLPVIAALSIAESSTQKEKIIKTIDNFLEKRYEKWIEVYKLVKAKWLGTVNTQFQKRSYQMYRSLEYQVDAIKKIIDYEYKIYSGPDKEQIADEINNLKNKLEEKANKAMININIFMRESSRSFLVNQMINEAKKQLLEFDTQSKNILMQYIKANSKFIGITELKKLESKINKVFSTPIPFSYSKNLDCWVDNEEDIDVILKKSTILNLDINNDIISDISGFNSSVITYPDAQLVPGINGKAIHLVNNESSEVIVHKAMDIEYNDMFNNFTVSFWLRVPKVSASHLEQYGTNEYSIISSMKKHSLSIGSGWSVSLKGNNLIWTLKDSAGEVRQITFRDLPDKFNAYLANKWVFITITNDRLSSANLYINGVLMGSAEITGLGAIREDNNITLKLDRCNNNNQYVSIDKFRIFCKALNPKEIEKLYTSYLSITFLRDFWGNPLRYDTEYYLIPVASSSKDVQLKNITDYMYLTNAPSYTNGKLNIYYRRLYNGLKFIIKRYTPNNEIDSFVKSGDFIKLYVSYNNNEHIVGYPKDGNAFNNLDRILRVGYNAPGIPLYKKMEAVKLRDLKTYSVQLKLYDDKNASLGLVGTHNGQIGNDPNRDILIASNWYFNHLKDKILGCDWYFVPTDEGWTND
Experiment [2] has as its target tetanus toxoid (Clostridium tetani, strain  …, UniProt P04958). The experiment can be described thus: SPR. The source holds these as a separate data set.
Target sequence in this assay (P04958 whole entry): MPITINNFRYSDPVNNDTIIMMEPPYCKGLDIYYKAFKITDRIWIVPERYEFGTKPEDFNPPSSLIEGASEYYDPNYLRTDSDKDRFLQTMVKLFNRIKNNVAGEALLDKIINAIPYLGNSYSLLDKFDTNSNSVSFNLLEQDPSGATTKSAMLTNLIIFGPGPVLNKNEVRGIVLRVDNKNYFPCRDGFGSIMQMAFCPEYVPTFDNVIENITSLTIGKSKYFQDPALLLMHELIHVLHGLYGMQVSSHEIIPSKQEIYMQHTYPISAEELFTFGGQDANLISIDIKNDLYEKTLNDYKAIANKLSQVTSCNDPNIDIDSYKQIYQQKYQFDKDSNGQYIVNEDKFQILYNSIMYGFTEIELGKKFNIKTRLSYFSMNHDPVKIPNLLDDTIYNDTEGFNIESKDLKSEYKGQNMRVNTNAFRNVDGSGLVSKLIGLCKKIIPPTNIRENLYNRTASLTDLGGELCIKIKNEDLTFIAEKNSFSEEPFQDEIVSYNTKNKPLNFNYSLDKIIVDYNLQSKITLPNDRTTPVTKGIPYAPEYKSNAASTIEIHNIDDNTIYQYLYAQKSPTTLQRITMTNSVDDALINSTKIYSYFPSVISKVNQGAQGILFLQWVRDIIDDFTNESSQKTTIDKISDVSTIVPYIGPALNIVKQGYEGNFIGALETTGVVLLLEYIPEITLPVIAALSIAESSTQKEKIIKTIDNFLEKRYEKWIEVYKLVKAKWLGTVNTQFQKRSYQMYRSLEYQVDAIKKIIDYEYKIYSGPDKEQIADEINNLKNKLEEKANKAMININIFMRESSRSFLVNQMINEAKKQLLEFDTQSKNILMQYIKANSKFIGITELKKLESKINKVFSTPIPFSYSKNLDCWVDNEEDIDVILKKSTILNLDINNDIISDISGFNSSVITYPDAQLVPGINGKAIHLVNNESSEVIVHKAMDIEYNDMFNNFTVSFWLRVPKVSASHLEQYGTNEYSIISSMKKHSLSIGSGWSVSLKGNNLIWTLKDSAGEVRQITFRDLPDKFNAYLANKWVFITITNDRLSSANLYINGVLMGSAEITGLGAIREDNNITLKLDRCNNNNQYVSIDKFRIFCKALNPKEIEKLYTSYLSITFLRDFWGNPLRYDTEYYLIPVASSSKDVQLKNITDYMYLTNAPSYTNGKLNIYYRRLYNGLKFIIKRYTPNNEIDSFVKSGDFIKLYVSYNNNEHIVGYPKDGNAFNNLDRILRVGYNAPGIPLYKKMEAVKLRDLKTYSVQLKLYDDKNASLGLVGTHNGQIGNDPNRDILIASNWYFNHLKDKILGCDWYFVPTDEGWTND
In experiment [3] the target is T1, tetanus toxoid. Put plainly: ELISA. On the technique in general: In an ELISA, binding on a coated surface is turned into a signal by an enzyme label.

B1: anti-TT mAb of hybridoma 14 (antibody, V domains shown)
VH: VQLQESGPGLVAPSQSLSITCTVSGFSLTSYGVHWVRQPPGKGLEWLGVIWPGGSTNYNSALMSRLSISQDNSKSQVFLKMNSLQIDDTAMYHCARDFQYGNYFDYWGQGTSLTVSS
VL: MPASPGEKITITCSASSSISSNYLHWYQQKPGFSPKLLIYRTSNLASGVPARFSGSGSGTSYSLTVGTMEAEDVATYYCQQGTSIPTFGAGTKLELK
In the experiment with tetanus toxoid [1], B1 gave a Kd of 3.1 nM, a koff of 0.00029 s⁻¹ and a kon of 94000 M⁻¹ s⁻¹.

B2: TT-specific Fab S10 from the phage display library (Fab, V domains shown)
VH: LVAPSQSLSITCTVSGFSLTDYGVNWVRQPPGKGLEWLGMIWGDGSTDYNSALKSRLSISKDNSKSQVFLKMNSLQTDDTARYFCVRTFHYGNYFDYWGQGTTLTVSS
VL: TMAASPGEKITITCSASSSISSNYLHWYQQKPGFSPKLLIYRTSNLASGVPARFSGSGSGTSYSLTIGTMEAEDVATYYCQQGSSIPLTFGAGTKLELK
In the experiment with tetanus toxoid [2], B2 came in with a Kd of 12 nM, a koff of 0.00032 s⁻¹ and a kon of 26000 M⁻¹ s⁻¹.

B3: anti-TT mAb of hybridoma P4T29115 (antibody, V domains shown)
VH: EVKLVESGGGLVKPGGSLKLSCAASGITFSNYAMSWVRQTPEKRLEWVATISSGGSYIYYPDSVKGRFTISRDNAKNTLYLQMSSLRSEDTAVYFCARLGYDGVALDYWGQGTSVTVSS
VL: ASLGDRVSISCRASQDIRNYLNWYQQRPDGTVKLLIYYTSRLHSGVPSRFSGSGSGTDYSLTISNLEQEDIATYFCQQGNTFPWTFGGGTKLEIK
For the molecule B3, in the experiment with tetanus toxoid [3], the binding result was “binds”.

B4: TT-specific Fab D5O 94 from the phage display library (Fab, V domains shown)
VH: LVKPGASVKIPCKASGYTFTDYNIDWVKQSHGKSLEWIGDINPNNGGTIYNQKFKDKATLTVDKSSSTAYMELRSLTSEDTAVYYCARDFYYGRYFDYWGQGTTLTVSS
VL: TMAASPGEKITITCSATSSISSNYLHWYQQKPGFSPKLLIYRTSNLASGVPARFSGSGSGTSYSLTIGTMEAEDVATYYCQQGSNIPTFGSGTKLELK
On to B4, for which, in the experiment with tetanus toxoid [2], the Kd is 4.8 nM, the koff is 0.00037 s⁻¹ and the kon was 78000 M⁻¹ s⁻¹.

B5: phage display isolate S546 (Fab, V domains shown)
VH: LVAPSQSLSITCTVSGFSLTSYGVHWVRQPPGKGLEWLGVIWPGGSTNYNSALMSRLSISKDNSKSQVFLKMNSLQTDDTAMYYCARDFQYGNYFDYWGQGTTLTVSS
VL: TMAASPGEKITITCSASSSISSNYLHWYQQKPGFSPKLLIYRTSNLASGVPTRFSGSGSGTSYSLTIGTMEAEDVATYYCQQGSSISTFGAGTKLELK
Turning to B5, the binding result in the experiment with tetanus toxoid [3] is “binds”.

B6: anti-TT mAb of hybridoma 24 (antibody, V domains shown)
VH: VQLQQTGPGLVQPSQSLSITCTVSAFSLTNYGIHWVRQSPGKGLEWLGVIWTGGSTDYNAPFISRLSISKDNSKSQVFFKMNSLQANDTAIYYCVRDGYRVMDYWGQGTSVTVSS
VL: LSASVGETVTITCRASGNIHNYLAWYQQKQGKSPQLLVYNAKTLTDGVPSRFSGSGSGTQHSLKINSLQPEDFGSYYCQHFWTIPWTFGGGTKLEIK
Turning to B6, in the experiment with tetanus toxoid [1], the dissociation constant Kd was 1.9 nM, the koff was 0.00016 s⁻¹ and the association rate constant (kon) turned out to be 86000 M⁻¹ s⁻¹.

B7: phage display isolate S917 (Fab, V domains shown)
VH: LVKPGGSLKLSCAVSGFNFSNYAMSWVRQTPEKRLEWVATISSGGSYIYYPDSVKGRFTISRDNAKNTLYLQMSSLRSEDTAMYYCARQDRYGFALDYWGQGTSVTVSS
VL: SLSASLGDRVTISCRASQDINNYLNWYQQKPDGTIRLLIYYTSRLHSGVPSRFSGSGSGTDYSLTITNLEQEDFATYFCQQGNTLPWAFGGGTKLEIK
For B7, the binding result with tetanus toxoid [3] was “binds”.
